Laboratory results published in US12611470B2, “Chromatin-opening element for stable long term gene expression” (CZ Biohub SF, LLC, priority 2019, dated 2026).

Key:
[1] = tested on: P19 murine embryonic carcinoma stem cell line; experiment: Stable transfection silencing screen of candidate UCOEs linked to Ef1α-GFP; assay type: cell-based, mouse; conditions: UCOE-Ef1α-GFP stable transfection
Protocol: The candidate regions tested were Candidates 1, 1R, 3, 5, 6, 6R, 7, 8, 9R, 10, and 10R, with “R” denoting that the reverse orientation of the candidate region was tested. As a negative control, the stable expression construct without a UCOE or candidate region was assessed (Ef1a). As a positive control, the 2.2 kB A2UCOE sequence, as well as the 1.2 kB reverse orientation sequence 3′UCOE, were cloned into the same reporter construct as the candidate sequences. The percent GFP positive in the population was monitored as a metric for silencing by flow cytometry analysis with each passage, with the change (difference between final and initial time points) plotted on the graph (Δ% GFP+).
The assay is the same stable transfection screen format described for FIG. 2B. […]
Fluorescence data throughout silencing experiments was obtained using a MACSQuant® VYB flow cytometer (Miltenyi Biotec). EGFP was measured through the 488-nm laser and 525/50 nm band pass filter. Flow cytometry data was analyzed using the FlowJo™ single cell flow cytometry analysis software (Tree Star). […]
Candidates were initially screened in the P19 murine embryonic carcinoma stem cell line. […] As P19 cells readily integrate DNA, a stable transfection of the expression construct performed. […]

P19 cells = experiment: Standalone (intrinsic) promoter activity screen, UCOE-GFP construct lacking the Ef1a promoter; assay type: cell-based, mouse; conditions: for inherent promoter activity: synthetic construct without other promoter
From the text: A schematic representation of the expression construct in which the candidate region (UCOE) is inserted upstream of the GFP gene in the absence of any other promoter sequences as used is shown as an inlay. As positive controls, the Ef1α promoter, the 2.2 kB A2UCOE sequence, and the 1.2 kB reverse orientation sequence 3′UCOE, were cloned into the same reporter construct as the candidate sequences. The percent GFP positive in the population was monitored as a metric for gene expression by flow cytometry analysis with each passage (% GFP). Stably transfected cells were assayed for % GFP+ and median fluorescent intensity (normalized to Ef1a promoter control). Data is reported as mean±SD from biological duplicates.
P19 cells were seeded at 25,000 cells/well in 12 well plates. 24 h after seeding, cells were transfected using Lipofectamine™ 2000 transfection reagent (Thermo Fisher) according to the manufacturer's instructions using 500 ng DNA/well and 2.5 μL of Lipofectamine per well. 24 hours after transfection, selection was initiated with 1 μg/mL puromycin (Sigma-Aldrich) in regular growth media and, from then on, cells were passaged at 1:15 or 1:20 dilutions whenever cells were 80-90% confluent (every 2-3 days) with frequent refreshing of puromycin-containing media to clear dead cells. After approximately 14-16 days, remaining cells were assumed to be stably transfected and were changed to regular growth media to initiate silencing experiments. During silencing experiments, the P19 cells were passaged every 2-3 days and re-seeded at 15,000 cells/well.
Fluorescence data throughout silencing experiments was obtained using a MACSQuant® VYB flow cytometer (Miltenyi Biotec). EGFP was measured through the 488-nm laser and 525/50 nm band pass filter. Flow cytometry data was analyzed using the FlowJo™ single cell flow cytometry analysis software (Tree Star). After being gated for singlets and viability, GFP+ gates in FlowJo were drawn such that a non-transfected or non-transduced P19 cell population was at 1% GFP+. Median values reported are of cells within the GFP+ gate, both % GFP positive and median are reported with the standard deviation of biological replicates.
As A2UOCE dually functions as a protective regulatory element and a universal promoter, the candidate UCOEs were further screened for standalone promoter activity. A similar experiment as the aforementioned screen was performed using a similar expression construct that lacked the Ef1a promoter. This construct was used to assess whether the candidate sequences could drive reporter expression and act as stand-alone functional promoters. Candidates were compared to the positive control of the EF1a promoter, which had ˜70% GFP+ cells after two weeks of antibiotic selection, showing a distinct positive population in the fluorescence histogram. The GFP+ gate (i.e., flow cytometry fluorescence threshold for GFP+ cells) was set to encompass 1% of untransfected cells and then applied to all samples. […] Such a result appears as a bimodal distribution on a histogram, with a peak below the gate threshold (i.e., GFP negative cell population) and a peak above it (i.e., the distinct GFP positive population mentioned above). […] In this study, a % GFP+ of at least 50% is considered to reflect the existence of a second population in the histograms, and thus a binary indicator of promoter function. […] The median GFP intensity of the GFP+ population was used a measure of the strength of the promoter, and normalized to the Ef1a positive control as shown in FIG. 2C.
This aligns with previous observations that the RNPA2B1 promoter is much stronger than that of CBX3 (Zhang, F., et al. (2010) Mol Ther, 18, 1640-1649 (7)). However, the RNPA2B1 promoter in A2UCOE is only 30% as strong as the EF1α promoter. […]

B1: Candidate 6: Full length SRF-UCOE, SEQ ID NO:1; region between human SURF1 and SURF2 including first introns, chr9 (nucleic acid, listed as Homo sapiens)
DNA: GCACACGACCACAATTCCACTGAAAGCATTTTAATACGGAACTTGTCACTCCCAGGGAGCCTCCGCTCAGCCGGCAGTTGGTTCATTTCAATCCCCACGACAACCCTTCAAAGTGCAGGGCAGACAGCAGGTGGCTCTGCCCAGGCGCCTGGATCACAGCCCGGCCTGCAGCCCTCACCTGGGCGCGGGGAGACCCTGAGGACGCTCCTCCAGGCGGCGCTGGCCGGGGCCTGCGGACACGGACGGGCGGGCTGAGCTCCGGGACCCCTCCCCGCGCCCCGCACCCCGCACCCCGCACCCCGCACCCCGCACCCGGCGCTCACCCGTCCCAGCCCCGCCGCCCGCAGCCCCAGCTGCAACGCAGCCACCGCCGCCATCGCACCCGGCCCCGCGGGCGCTTCCGGGACGCAGGAGGCATCTGCATCCGGGGCGCCGCTGAGTCCCGCCCAGAGCCCCGCCCCCGGCTCCAGGTTCTGCGAGCGGCTTCCGCCGGGCTGCTCCGCGGGCGCGTCGGCCATGAGCGAGTTGCCGGGCGACGTGCGGGCGTTTCTGCGGGAGCACCCGAGCCTGCGGCTCCAGACGGACGCCCGCAAGGTTCGCAGCGCGGGAGGGGAACGGAGTGGCGGAGAAGGGCGCAGTTGGGATGAGGGGCTGAGGGGAGGGCAGGGGAGAGGAGAGGGCAGGGGAGAGGGGAGAGGGGAGAGCAGGAGAGAGGGGAAGGCAGGGGAGAGGGCGCGGCGGGATCAGGGGAGGAGAGGGAAGGGGGCGCGGCAGGAGGGGGCACCAGGGAGCGGAGCCCTGGCCCTCCTGACGTCCTGCCCGCCCACGCGTCCGCAGGTGAGGTGCATCCTGACAGGTCACGAGCTGCCCTGCCGCCTGCCGGAGCTCCAGGTCTACACCCGCGGCAAAAAGTACCAGCGGCTGGTCCGCGCCTCCCCGGCCTTCGACTATGCAGAGTTCGAGCCGCACATCGTGCCCAGCACCAAGAACCCGTAGGTGGTC
[1]; 19 days
  silencing resistance / stable expression relative to the negative (Ef1α-only) control: significant improvement in stable expression
[1]; over 19 days after puromycin removal, flow cytometry
  loss in percent GFP positive cells over the time period: about 6%
P19 cells; at least 50% GFP+ = second population
  peaks in fluorescence histogram (binary indicator of promoter function): only one peak
P19 cells; promoterless GFP construct, after two weeks of antibiotic selection, one representative example
  % GFP+ cells, representative flow cytometry example: 1.99%
P19 cells
  inherent promoter activity: did not exhibit inherent promoter activity
P19 cells; listed as SRF-UCOE element
  inherent promoter activity: does not initiate transcription
